Laboratory results reported in article PMC8546539, “CK2 Phosphorylation of Human Papillomavirus 16 E2 on Serine 23 Promotes Interaction with TopBP1 and Is Critical for E2 Interaction with Mitotic Chromatin and the Viral Life Cycle” (mBio, 2021).

How the values were obtained:
[1] = target: TopBP1 (UniProt Q92547); test: TopBP1 antibody co-IP, E2 Western blot; conditions: reference: E2-WT; sites S23
[2] = target: TopBP1 (UniProt Q92547); test: TopBP1 antibody co-IP, E2 Western blot; conditions: reference: E2-WT; sites S23; remark: listed apart in the source
[3] = target: T1, GST TopBP1 (aa 32 to 1522) His (UniProt Q92547 32-1522); test: pull-down; conditions: both partners purified
T1 construct: also called GST-tagged TopBP1; recombinant GST-TopBP1 (full length); source: E. coli BL21(DE3), purified (Glutathione Sepharose 4B, size exclusion chromatography)

Question: HPV16 E2 (from UniProt P03120) E2-S23A was tested. Which “binding against the reference” value [1] did it give?
Answer: weaker

Question: And the “binding against the reference” value [2]?
Answer: weaker

B1: His-E2-S23D (amino acids 1 to 200) (domain or fragment)
chain: METLCQRLNVCQDKILTHYENDDTDLRDHIDYWKHMRLECAIYYKAREMGFKHINHQVVPTLAVSKNKALQAIELQLTLETIYNSQYSNEKWTLQDVSLEVYLTAPTGCIKKHGYTVEVQFDGDICNTMHYTNWTHIYICEEASVTVVEGQVDYYGLYYVHEGIRTYFVQFKDDAEKYSKNKVWEVHAGGQVILCPTSVF
notes: source: E. coli BL21(DE3), purified (Ni-NTA agarose, size exclusion chromatography)
Question: Does B1 bind [3]?
Answer: binds
